Measured values as given in article PMC12081870 (Communications Biology, 2025).

Assay: 15N NMR relaxation (T1, T2, NOE) of Sla1 SH3#1&2
Type: physicochemical, Saccharomyces cerevisiae
Design: Time Constant (T2) / T1 / T2: unit not given here
Settings: for R1/s: 15N relaxation rate; for NOE / T1 / T2: 15N relaxation; for Time Constant (T2): fit A exp(-Bx), 11 peaks
Text: Fig. 2 A structural analysis of Sla1 SH3 domains 1 and 2. A The predicted interface between the first two SH3 domains of Sla1 as modelled using Alphafold. SH3#1 is shown in light green and SH3#2 is shown in cyan. Residues predicted to form hydrogen bonds using the Pymol search function are shown as sticks and labelled with their respective residue numbers. Dashed black lines indicate interactions. The red line in the structure indicates residues 67–70 in the hinge between the SH3 domains; the magenta loop indicates residues 52–54. B Assignment of the ^1H ^15N HSQC spectrum of Sla1 SH3 domains 1 and 2. C^15N relaxation data for Sla1 SH3#1&2. The linker between domains is approximately residues 67–70 (shown with red line under the trace and in A), and the mobile region 52-54 is part of a loop (shown with magenta line below the trace and in A). The correlation time of 8.5 ns (derived from the trimmed ^15N T1/T2 ratio), matches that calculated for a rigid two-domain structure rather than two independent domains (8.8 and 4.5 ns, respectively).
To investigate further, we purified ^15N, ^13C labelled Sla1 SH3#1&2 and analysed using NMR. A full assignment was obtained (Fig. 2B) which confirmed the Alphafold structure. An important aspect when considering the function of tandem domains is the level of rigidity or flexibility between the domains. […] NMR was used to determine relaxation parameters (^15N R1, R2 and NOE) of ^15N-labelled SH3#1-2 (Fig. 2B). […] The structural unity of the two-domain structure explains why attempts to study SH3#2 alone were unsuccessful.
Experiments were carried out on Bruker DRX-600 and DRX-800 spectrometers fitted with cryoprobes. SH3 domains 1 and 2 were assigned using a standard set of HNCA/HN(CO)CA, HNCO/HN(CA)CO and CBCAHN/CBCA(CO)HN 3D spectra. The assignment has been deposited at BioMagResBank, with code 52650. SH3 domain-3 was assigned by comparison to data provided by Prof Ishwar Radhakrishnan (Northwestern University) for the same domain although with different residues at both ends. Titrations were conducted with three peptides (GenScript Biotech, UK) comprising the three PP motifs (Fig. 3A): p1 […] (residues 318–339); p2 […] (residues 330–361); and p3 […] (residues 375–397). Peptide solutions were prepared as concentrated stock solutions in the same buffer at the same pH and added stepwise to protein solutions. Shift changes were analysed by picking peaks in Felix (Felix NMR Inc, San Diego, CA), which were downloaded to text files and for determining Kd were analysed using Levenberg-Marquardt least squares fitting to the standard quadratic equation[63]. Analysis of the ^15N relaxation data was carried using CCPN Analysis[64].

[1] = Average over the listed residues

B1: Sla1 SH3#1-2: SH3#1-2 (aa 5-131), tandem domains; sequence in b253 (protein)
chain: LGIYRAVYAYEPQTPEELAIQEDDLLYLLQKSDIDDWWTVKKRVIGSDSEEPVGLVPSTYIEEAPVLKKVRAIYDYEQVQNADEELTFHENDVFDVFDDKDADWLLVKSTVSNEFGFIPGNYVEPEN
modifications: 15N-labelled (NMR only); left off: GST, end not stated, cleaved
- R1/s (Res No 120): 1.466 s⁻¹
- R1/s (Res No 121): 1.493 s⁻¹
- R1/s (Res No 122): 1.379 s⁻¹
- R1/s (Res No 124): 1.37 s⁻¹
- R1/s (Res No 125): 1.488 s⁻¹
- R1/s (Res No 126): 1.238 s⁻¹
- R1/s (Res No 127): 1.493 s⁻¹
- R1/s (Res No 128): 1.443 s⁻¹
- R1/s (Res No 130): 1.206 s⁻¹
- R1/s (Res No 131): 1.364 s⁻¹
- NOE (Res No 120): 0.82
- T1 (Res No 120): 682.123
- T2 (Res No 120): 81.3349
- NOE (Res No 121): 0.78
- T1 (Res No 121): 669.609
- T2 (Res No 121): 97.0012
- NOE (Res No 122): 0.83
- T1 (Res No 122): 725.391
- T2 (Res No 122): 86.8543
- NOE (Res No 124): 0.77
- T1 (Res No 124): 730.172
- T2 (Res No 124): 96.3447
- NOE (Res No 125): 0.80
- T1 (Res No 125): 671.872
- T2 (Res No 125): 93.7171
- NOE (Res No 126): 0.79
- T1 (Res No 126): 807.954
- T2 (Res No 126): 78.1493
- NOE (Res No 127): 0.85
- T1 (Res No 127): 669.869
- T2 (Res No 127): 96.0414
- NOE (Res No 128): 0.81
- T1 (Res No 128): 693.218
- T2 (Res No 128): 98.2071
- NOE (Res No 130): 0.63
- T1 (Res No 130): 829.235
- T2 (Res No 130): 96.7653
- NOE (Res No 131): 0.25
- T1 (Res No 131): 733.153
- T2 (Res No 131): 129.47
- T1, average [1]: 736.968 ms
- T1/T2, average [1]: 7.904
- T2, average (Average over the listed residues, unit of column T2 Error not given): 95.1164 ms
- tm (If S2 ~ 0.9, from T1/T2): ~8.5 ns
- correlation time (derived from trimmed 15N T1/T2 ratio): 8.5 ns
- Time Constant (T2) (residue 2, 2LeuH/2LeuN): 74.2339
- Time Constant (T2) (residue 3, 3GlyH/3GlyN): 77.6134
- Time Constant (T2) (residue 4, 4SerH/4SerN): 87.959
- Time Constant (T2) (residue 5, 5LeuH/5LeuN): 78.1323
- Time Constant (T2) (residue 6, 6GlyH/6GlyN): 92.4802
- Time Constant (T2) (residue 7, 7IleH/7IleN): 92.3591
- Time Constant (T2) (residue 8, 8TyrH/8TyrN): 80.6702
- Time Constant (T2) (residue 9, 9ArgH/9ArgN): 95.265
- Time Constant (T2) (residue 10, 10AlaH/10AlaN): 80.3318
- Time Constant (T2) (residue 11, 11ValH/11ValN): 83.3796
- Time Constant (T2) (residue 12, 12TyrH/12TyrN): 98.6102
- Time Constant (T2) (residue 13, 13AlaH/13AlaN): 103.591
- Time Constant (T2) (residue 14, 14TyrH/14TyrN): 86.8853
- Time Constant (T2) (residue 15, 15GluH/15GluN): 80.7454
- Time Constant (T2) (residue 17, 17GlnH/17GlnN): 97.1227
- Time Constant (T2) (residue 18, 18ThrH/18ThrN): 94.4167
- Time Constant (T2) (residue 20, 20GluH/20GluN): 89.6372
- Time Constant (T2) (residue 21, 21GluH/21GluN): 88.1386
- Time Constant (T2) (residue 22, 22LeuH/22LeuN): 101.792
- Time Constant (T2) (residue 23, 23AlaH/23AlaN): 109.32
- Time Constant (T2) (residue 24, 24IleH/24IleN): 84.8173
- Time Constant (T2) (residue 25, 25GlnH/25GlnN): 91.5466
- Time Constant (T2) (residue 26, 26GluH/26GluN): 91.8855
- Time Constant (T2) (residue 27, 27AspH/27AspN): 90.7749
- Time Constant (T2) (residue 28, 28AspH/28AspN): 79.1318
- Time Constant (T2) (residue 29, 29LeuH/29LeuN): 102.528
- Time Constant (T2) (residue 30, 30LeuH/30LeuN): 94.1276
- Time Constant (T2) (residue 31, 31TyrH/31TyrN): 100.15
- Time Constant (T2) (residue 32, 32LeuH/32LeuN): 86.762
- Time Constant (T2) (residue 33, 33LeuH/33LeuN): 75.7339
- Time Constant (T2) (residue 34, 34GlnH/34GlnN): 87.3929
- Time Constant (T2) (residue 35, 35LysH/35LysN): 101.82
- Time Constant (T2) (residue 36, 36SerH/36SerN): 153.776
- Time Constant (T2) (residue 37, 37AspH/37AspN): 90.5854
- Time Constant (T2) (residue 38, 38IleH/38IleN): 99.0603
